Results on two molecules are retold here after publication PMC10987633, “Structural basis for RAD18 regulation by MAGEA4 and its implications for RING ubiquitin ligase binding by MAGE family proteins” (The EMBO Journal, 2024).

The Kd is the constant that tells how readily two partners part at equilibrium.

B1: full-length MAGEA4 wild type (purified) (natural protein, human, UniProt P43358 1-317, looked up)
chain: MSSEQKSQHCKPEEGVEAQEEALGLVGAQAPTTEEQEAAVSSSSPLVPGTLEEVPAAESAGPPQSPQGASALPTTISFTCWRQPNEGSSSQEEEGPSTSPDAESLFREALSNKVDELAHFLLRKYRAKELVTKAEMLERVIKNYKRCFPVIFGKASESLKMIFGIDVKEVDPASNTYTLVTCLGLSYDGLLGNNQIFPKTGLLIIVLGTIAMEGDSASEEEIWEELGVMGVYDGREHTVYGEPRKLLTQDWVQENYLEYRQVPGSNPARYEFLWGPRALAETSYVKVLEHVVRVNARVRIAYPSLREAALLEEEEGV
notes: MAGEA4, human, Uniprot P43358, full length; Cloned into PET15C; No removal of the His tag is described; the diGly search database lists 'His-tagged MAGEA4'; also called MAGEA4 WT; FL MAGEA4; source: E. coli BL21star, purified (TALON, SEC)

Common to all, as to conditions: both partners purified
The target of assay [1] is T1, His-tagged full-length RAD18 wild type (human, UniProt Q9NS91 1-495).
T1 construct: RAD18, RING E3 ubiquitin ligase, human, Uniprot Q9NS91, residues 1-495, full length; Cloned into PET15C; Dimer in the RAD18/RAD6 complex by AUC and mass photometry; also called RAD18 WT; FL RAD18; source: E. coli BL21star; co-expressed with untagged MAGEA4, in cleared lysate (His pull-down); co-expressed with RAD6 and purified as RAD18/RAD6 (TALON, SEC); not shown: His tag, N-terminal, kept
T1 sequence (Q9NS91 whole entry, the tested form may be a part): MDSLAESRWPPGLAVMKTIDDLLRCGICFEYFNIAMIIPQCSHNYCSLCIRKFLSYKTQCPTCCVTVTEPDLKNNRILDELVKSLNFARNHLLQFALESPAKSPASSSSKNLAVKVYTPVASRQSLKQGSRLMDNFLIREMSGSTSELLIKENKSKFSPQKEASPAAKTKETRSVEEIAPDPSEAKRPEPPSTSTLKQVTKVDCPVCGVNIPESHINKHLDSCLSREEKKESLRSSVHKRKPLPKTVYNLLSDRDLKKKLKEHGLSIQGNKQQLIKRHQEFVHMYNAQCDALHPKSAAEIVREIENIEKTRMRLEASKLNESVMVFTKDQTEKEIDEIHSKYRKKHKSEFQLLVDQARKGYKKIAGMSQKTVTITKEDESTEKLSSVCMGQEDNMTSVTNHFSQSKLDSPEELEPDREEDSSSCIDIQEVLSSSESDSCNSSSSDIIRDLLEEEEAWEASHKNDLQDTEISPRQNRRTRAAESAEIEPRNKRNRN
Briefly: cross-linking; XL-MS of RAD18/RAD6 incubated with 5x molar excess of full-length MAGEA4 for 1 h at 4 °C before BS3; trypsin, LC-MS/MS.

In assay [2] the target is RAD18/RAD6 complex (purified) (human, UniProt Q9NS91 1-495; P63146 1-152, 2:1 RAD18:RAD6 asymmetric dimer as stated; Zn2+ bound (RING, zinc finger); RAD6 paralogue not given, UBE2B inferred from 2YBF). Briefly: mass photometry; OneMP mass photometer, SEC buffer; RAD18/RAD6, and RAD18/RAD6/MAGEA4 first cross-linked with BS3 (30 min on ice) and separated on an S200 3.2/300 column, peak fraction measured.
Sequence of RAD18/RAD6 complex (purified) (Q9NS91 whole entry, chain 1 of 2): as the sequence (Q9NS91 whole entry, the tested form may be a part) above
Sequence of RAD18/RAD6 complex (purified) (B2R503 whole entry, chain 2 of 2, further chain): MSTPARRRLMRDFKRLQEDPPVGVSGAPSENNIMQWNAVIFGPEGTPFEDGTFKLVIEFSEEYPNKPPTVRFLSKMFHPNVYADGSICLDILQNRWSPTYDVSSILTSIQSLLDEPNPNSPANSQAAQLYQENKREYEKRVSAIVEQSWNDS

Assay [3] addresses RAD6 wild type (purified alone) (human, UniProt P63146 1-152, paralogue not given; UBE2B chosen because the paper's RAD6/R6BD reference structure 2YBF is UBE2B). Briefly: ITC; RAD18 R6BD peptide at 200 µM titrated into protein at 20 µM; MicroCal ITC200, 25 °C; SEC buffer (100 mM NaCl, 20 mM HEPES pH 7.5, 1 mM TCEP). For orientation: In ITC the heat of successive injections is recorded.

For assay [4], the target named is B1. The description is as above.
A further assay deals with T2, full-length MAGEA4 M161D (human, UniProt P43358 1-317, M161D).
T2 construct: MAGEA4, human, Uniprot P43358, full length, with M161D; source: E. coli BL21star, purified (TALON, SEC)
T2 sequence (looked up): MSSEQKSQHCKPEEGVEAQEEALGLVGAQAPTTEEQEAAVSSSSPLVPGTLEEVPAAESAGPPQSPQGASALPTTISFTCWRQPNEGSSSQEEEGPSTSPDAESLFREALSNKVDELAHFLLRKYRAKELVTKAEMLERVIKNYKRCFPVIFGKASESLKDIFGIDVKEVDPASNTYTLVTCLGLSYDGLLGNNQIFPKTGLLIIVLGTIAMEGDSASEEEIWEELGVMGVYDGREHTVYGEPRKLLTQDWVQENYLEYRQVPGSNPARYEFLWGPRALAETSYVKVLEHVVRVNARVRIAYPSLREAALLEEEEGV
The assay is described as above.

As to B1, the binding result in assay [1] was “binds”. In assay [2], the “stoichiometry N” value is 1 MAGEA4 per RAD18/RAD6 complex.

B2: RAD18 R6BD peptide (residues 340-366) (peptide, UniProt Q9NS91 340-366, looked up)
peptide: SKYRKKHKSEFQLLVDQARKGYKKIAG
notes: also called 27 amino acid peptide corresponding to the RAD18 R6BD; source: synthetic peptide, bought: GenScript
As for B2, the Kd in assay [3] is 25300 nM; in assay [4] it was 405 nM; in the assay with full-length MAGEA4 M161D, 1660 nM.
